Test results reported in article doi:10.1101/2025.09.10.675329 (bioRxiv, 2025).

Target: CDK5 (full-length), His-tag cleaved (human, UniProt Q00535 1-292)
Assay: SEC

binding result: binds
B1: cyclin B1 (amino acids 152-433, C167S, C238S, C350S), co-expressed with CDK5 from a single 438-B vector (domain or fragment)
chain: AVNDVDAEDGADPNLSSEYVKDIYAYLRQLEEEQAVRPKYLLGREVTGNMRAILIDWLVQVQMKFRLLQETMYMTVSIIDRFMQNNSVPKKMLQLVGVTAMFIASKYEEMYPPEIGDFAFVTDNTYTKHQIRQMEMKILRALNFGLGRPLPLHFLRRASKIGEVDVEQHTLAKYLMELTMLDYDMVHFPPSQIAAGAFSLALKILDNGEWTPTLQHYLSYTEESLLPVMQHLAKNVVMVNQGLTKHMTVKNKYATSKHAKISTLPQLNSALVQDLAKAVAKV
